Test results published in paper PMC5585231, “Endocytic sorting motif interactions involved in Nef-mediated downmodulation of CD4 and CD3” (Nature Communications, 2017).

Molecular target: T1, CD3 ζ SNID2 peptide (22-mer) (human)
T1 construct: also called second ITAM motif of CD3 ζ; source: synthetic peptide (in house, Boc chemistry, RP-HPLC)
T1 peptide: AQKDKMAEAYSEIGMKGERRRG
Assay: ITC; Nef (typically 200 µM) injected stepwise from the syringe into 20 µM CD3 ζ peptide in the cell; 20 mM HEPES pH 8.0, 100 mM NaCl, 25 °C; MicroCal iTC200
Conditions: both partners purified

B1: SIVmac239 Nef (66-235) (domain or fragment)
chain: MATPWRNPAEEREKLAYRKQNMDDIDEEDDDLVGVSVRPKVPLRTMSYKLAIDMSHFIKEKGGLEGIYYSARRHRILDIYLEKEEGIIPDWQDYTSGPGIRYPKTFGWLWKLVPVNVSDEAQEDEEHYLMHPAQTSQWDDPWGEVLAWKFDPTLAYTYEAYVRYPEEFGS
notes: pGEX-4T1 with a TEV site; also called SIV-B; SIV Nef-B; source: E. coli BL21(DE3), purified (GSH resin, size exclusion chromatography)
- stoichiometry N: 1.07
